# Measurements as given in patent US20240166765A1 (ICONIC THERAPEUTICS, published 2024).
# Numbering of substitutions follows the chain as printed.
# B1: 25G1 (antibody, human IgG1, kappa, V domains shown)
# VH: QVQLVQSGAEVKKPGASVKVSCKASGYTFRSYGISWVRQAPGQGLEWMGWVAPYSGNTNYAQKLQGRVTMTTDTSTSTAYMELRSLRSDDTAVYYCARDAGTYSPYGYGMDVWGQGTTVTVSS
# VL: DIQMTQSPSTLSASVGDRVTITCRASHSIDSWLAWYQQKPGKAPKLLIYKASYLESGVPSRFSGSGSGTEFTLTISSLQPDDFATYYCQLFQSLPPFTFGGGTKVEIKR
# B2: anti-TF antibody 25A5 (antibody, human IgG1, kappa, V domains shown)
# VH: B1 VH with R30D, S31V, V51I, Y106F
# VL: B1 VL with H27E, D30S, S31N, S52Y, Y53S, S56Y, L90Q, S93K
# B3: 25A3 (antibody, human IgG1, kappa, V domains shown)
# VH: B1 VH with R30D, S31V, V51I, Y106F
# VL: B1 VL with R24Q, H27Q, D30N, S31N, S52Y, Y53N
# B4: 25A5 (antibody, human IgG1, kappa, V domains shown)
# VH: B1 VH with R30D, S31V, V51I, Y106F
# VL: B1 VL with H27E, D30S, S31N, S52Y, Y53S, S56Y, L90Q, S93K
# B5: 25G9 (antibody, human IgG1, kappa, V domains shown)
# VH: B1 VH
# VL: B1 VL with R24Q, H27Q, K50S, L90R
# B6: 54E (antibody, human IgG1, V domains shown)
# VH: QVQLVQSGAEVKKPGASVKVSCKASGYTFANYYMHWVRQAPGQGLEWMGIINPSGGITVYAQKFQGRVTMTRDTSTSTVYMELSSLRSEDTAVYYCARGGSKVAALAFDIWGQGTMVTVSS
# VL: DIQMTQSPSSLSASVGDRVTITCQASQDISNSLNWYQQKPGKAPKLLIYDASNLETGVPSRFSGSRSGTDFTFTISSLQPEDIATYYCQQYNFHPLTFGGGTKVEIK
# B7: 5G9 (humanized TF8-5G9, CNTO 860) (antibody, V domains shown)
# VH: QVQLVESGGGVVQPGRSLRLSCKASGFNIKDYYMHWVRQAPGKGLEWIGLIDPENGNTIYDPKFQGRFTISADNSKNTLFLQMDSLRPEDTAVYYCARDNSYYFDYWGQGTPVTVSS
# VL: DIQMTQSPSSLSASVGDRVTITCKASQDIRKYLNWYQQKPGKAPKLLIYYATSLADGVPSRFSGSGSGTDYTFTISSLQPEDIATYYCLQHGESPYTFGQGTKLEIT
# B8: 43B1 (antibody, human IgG1, V domains shown)
# VH: QVQLQESGPGLVKPSQTLSLTCTVSGGSISSGQYWSWIRQHPGKGLEWIGEIYYSGSTRYNPSLKSRVTISVDTSKNQFSLKLSSVTAADTAVYYCARDAPYYYGGGYYYYMDVWGKGTTVTVSS
# VL: EIVLTQSPGTLSLSPGERATLSCRASESVDSSYLAWYQQKPGQAPRLLIYGASTRQTGIPDRFSGSGSGTDFTLTISRLEPEDFAVYYCQQAGVVPYTFGGGTKVEIK
# notes: human IgG1
# B9: 43B (antibody, V domains shown)
# VH: B8 VH
# VL: B8 VL with E27Q, D30S, T54S, Q56A, A92V
# B10: anti-TF antibody 43D (antibody, human IgG1, V domains shown)
# VH: QVQLQQWGAGLLKPSETLSLTCAVYGGSLSGYYWSWIRQPPGKGLEWIGEIGASGSTRYNPSLKSRVTISVDTSKNQFSLKLSSVTAADTAVYYCARDTPYYYEGGYYYYMDVWGKGTTVTVSS
# VL: B8 VL with E27Q, D30S, T54S, Q56A, A92V
# B11: 43D (antibody, V domains shown)
# VH: B10 VH
# VL: B8 VL with E27Q, D30S, T54S, Q56A, A92V
# B12: anti-TF antibody 43B1 (antibody, human IgG1, V domains shown)
# VH: B8 VH
# VL: B8 VL
# B13: anti-TF antibody 43B7 (antibody, human IgG1, V domains shown)
# VH: B8 VH
# VL: B8 VL with S53D, T54S, Q56A, A92D
# B14: 43B7 (antibody, V domains shown)
# VH: B8 VH
# VL: B8 VL with S53D, T54S, Q56A, A92D
# B15: 39A (antibody, human IgG1, V domains shown)
# VH: QVQLVQSGAEVKKPGSSVKVSCKASGGTFSSNAIGWVRQAPGQGLEWMGSIIPIIGFANYAQKFQGRVTITADESTSTAYMELSSLRSEDTAVYYCARDSGYYYGASSFGMDVWGQGTTVTVSS
# VL: EIVMTQSPATLSVSPGERATLSCRASQSVSSNLAWYQQKPGQAPRLLIYGASTRATGIPARFSGSGSGTEFTLTISSLQSEDFAVYYCEQYNNLPLTFGGGTKVEIK
# Key:
# [1] = target: T1, human Tissue Factor on MDA-MB-231 cells (human, UniProt P13726 33-295); assay: cell-based or functional assay
# [2] = target: human Tissue Factor (hTF), endogenously expressed on human TF-positive cells (human, UniProt P13726 33-295); assay: cell-based or functional assay
# Relipidated TF [3] = target: Relipidated TF (UniProt P13726 33-295, limits assumed); assay: cell-based or functional assay
# [4] = target: T1, human Tissue Factor on MDA-MB-231 cells; assay: cell-based or functional assay; remark: listed apart in the source
# relipidated TF [5] = target: relipidated TF (UniProt P13726 33-295, limits assumed); assay: cell-based or functional assay
# mouse TF ECD-His6 = target: T2, mouse TF ECD-His6 (mouse, UniProt P20352 29-251); assay: BLI (ForteBio Octet)
# T2 construct: made in Expi293 cells; also called TF-His; mTF
binder,measurement,setting,value
B1,"% IL8, 2.56 nM Ab",[1],46%
same,"% IL8, 6.4 nM Ab",[1],12%
same,"% IL8, 16 nM Ab",[1],9%
same,"% IL8, 40 nM Ab",[1],8%
same,"% IL8, 100 nM Ab",[1],9%
B2,"% GM-CSF, 2.56 nM antibody, MDA-MB-231 cells + FVIIa",[2],72%
same,"% GM-CSF, 6.4 nM antibody, MDA-MB-231 cells + FVIIa",[2],18%
B3,"% IL8, 2.56 nM Ab",[1],47%
same,"% IL8, 6.4 nM Ab",[1],9%
same,"% IL8, 16 nM Ab",[1],8%
same,"% IL8, 40 nM Ab",[1],8%
same,"% IL8, 100 nM Ab",[1],8%
B4,"% IL8, 2.56 nM Ab",[1],70%
same,"% IL8, 16 nM Ab",[1],7%
same,"% IL8, 40 nM Ab",[1],7%
B5,"% IL8, 2.56 nM Ab",[1],51%
same,"% IL8, 16 nM Ab",[1],15%
same,"% IL8, 40 nM Ab",[1],14%
same,"% IL8, 100 nM Ab",[1],13%
B6,"% ETP, TGA 10 min pre-incubation, 10 nM Ab",Relipidated TF [3],83%
same,"% Peak IIa, TGA […] min pre-incubation, 10 nM Ab",Relipidated TF [3],43%
same,"% Peak IIa, TGA […] min pre-incubation, 50 nM Ab",Relipidated TF [3],16%
same,"% Peak IIa, TGA […] min pre-incubation, 100 nM Ab",Relipidated TF [3],13%
same,"% ttPeak, TGA 10 min pre-incubation, 10 nM Ab",Relipidated TF [3],96%
same,"% ttPeak, TGA 10 min pre-incubation, 50 nM Ab",Relipidated TF [3],303%
same,"% ttPeak, TGA 10 min pre-incubation, 100 nM Ab",Relipidated TF [3],371%
same,"ETP, TGA 10 min pre-incubation, 10 nM Ab",Relipidated TF [3],1520 nM·min
same,"Lag Time, TGA 10 min pre-incubation, 10 nM Ab",Relipidated TF [3],6.5 min
same,"Lag Time, TGA 10 min pre-incubation, 50 nM Ab",Relipidated TF [3],18.3 min
same,"Lag Time, TGA 10 min pre-incubation, 100 nM Ab",Relipidated TF [3],22.3 min
same,"Peak IIa, TGA […] min pre-incubation, 10 nM Ab",Relipidated TF [3],121 nM
same,"Peak IIa, TGA […] min pre-incubation, 50 nM Ab",Relipidated TF [3],44 nM
same,"Peak IIa, TGA […] min pre-incubation, 100 nM Ab",Relipidated TF [3],37 nM
same,"ttPeak, TGA 10 min pre-incubation, 10 nM Ab",Relipidated TF [3],13.7 min
same,"ttPeak, TGA 10 min pre-incubation, 50 nM Ab",Relipidated TF [3],28.2 min
same,"ttPeak, TGA 10 min pre-incubation, 100 nM Ab",Relipidated TF [3],33 min
B7,"% FXa, 12.5 nM Ab",[4],37%
same,"% FXa, 25 nM Ab",[4],33%
same,"% FXa, 50 nM Ab",[4],30%
same,"% FXa, 100 nM Ab",[4],30%
B8,"TGA without pre-incubation, 10 nM Ab: % Peak IIa",relipidated TF [5],87%
same,"TGA without pre-incubation, 10 nM Ab: ETP",relipidated TF [5],2290 nM·min
same,"TGA without pre-incubation, 10 nM Ab: Lag Time",relipidated TF [5],4.9 min
same,"TGA without pre-incubation, 10 nM Ab: Peak IIa",relipidated TF [5],299 nM
same,"TGA without pre-incubation, 10 nM Ab: ttPeak",relipidated TF [5],8.9 min
same,"TGA without pre-incubation, 50 nM Ab: ETP",relipidated TF [5],2200 nM·min
same,"TGA without pre-incubation, 50 nM Ab: Lag Time",relipidated TF [5],5.2 min
same,"TGA without pre-incubation, 50 nM Ab: Peak IIa",relipidated TF [5],232 nM
same,"TGA without pre-incubation, 100 nM Ab: ETP",relipidated TF [5],2170 nM·min
same,"TGA without pre-incubation, 100 nM Ab: Lag Time",relipidated TF [5],5.2 min
same,"TGA without pre-incubation, 100 nM Ab: Peak IIa",relipidated TF [5],221 nM
same,Kd,mouse TF ECD-His6,72.1 nM
B9,"% IL8, 2.56 nM Ab",[1],50%
same,"% IL8, 16 nM Ab",[1],5%
same,"% IL8, 40 nM Ab",[1],4%
same,"% IL8, 100 nM Ab",[1],4%
B10,"% GM-CSF, 2.56 nM antibody, MDA-MB-231 cells + FVIIa",[2],56%
same,"% GM-CSF, 6.4 nM antibody, MDA-MB-231 cells + FVIIa",[2],24%
same,"% GM-CSF, 16 nM antibody, MDA-MB-231 cells + FVIIa",[2],13%
same,"% GM-CSF, 40 nM antibody, MDA-MB-231 cells + FVIIa",[2],11%
same,"% GM-CSF, 100 nM antibody, MDA-MB-231 cells + FVIIa",[2],12%
B11,"% FXa, 25 nM Ab",[4],109%
same,"% IL8, 2.56 nM Ab",[1],58%
same,"% IL8, 6.4 nM Ab",[1],21%
same,"% IL8, 40 nM Ab",[1],5%
same,"% IL8, 100 nM Ab",[1],5%
B12,"% GM-CSF, 2.56 nM antibody, MDA-MB-231 cells + FVIIa",[2],50%
same,"% GM-CSF, 6.4 nM antibody, MDA-MB-231 cells + FVIIa",[2],16%
B13,"% GM-CSF, 2.56 nM antibody, MDA-MB-231 cells + FVIIa",[2],50%
same,"% GM-CSF, 6.4 nM antibody, MDA-MB-231 cells + FVIIa",[2],17%
B14,"% IL8, 2.56 nM Ab",[1],55%
same,"% IL8, 6.4 nM Ab",[1],15%
same,"% IL8, 16 nM Ab",[1],8%
same,"% IL8, 40 nM Ab",[1],4%
same,"% IL8, 100 nM Ab",[1],4%
B15,"% ETP, TGA 10 min pre-incubation, 10 nM Ab",Relipidated TF [3],0%
same,"% Peak IIa, TGA […] min pre-incubation, 10 nM Ab",Relipidated TF [3],13%
same,"% Peak IIa, TGA […] min pre-incubation, 50 nM Ab",Relipidated TF [3],8%
same,"% Peak IIa, TGA […] min pre-incubation, 100 nM Ab",Relipidated TF [3],7%
same,"% ttPeak, TGA 10 min pre-incubation, 10 nM Ab",Relipidated TF [3],319%
same,"% ttPeak, TGA 10 min pre-incubation, 50 nM Ab",Relipidated TF [3],491%
same,"% ttPeak, TGA 10 min pre-incubation, 100 nM Ab",Relipidated TF [3],537%
same,"Lag Time, TGA 10 min pre-incubation, 10 nM Ab",Relipidated TF [3],19.6 min
same,"Lag Time, TGA 10 min pre-incubation, 50 nM Ab",Relipidated TF [3],30.7 min
same,"Lag Time, TGA 10 min pre-incubation, 100 nM Ab",Relipidated TF [3],33.6 min
same,"Peak IIa, TGA […] min pre-incubation, 10 nM Ab",Relipidated TF [3],36 nM
same,"Peak IIa, TGA […] min pre-incubation, 50 nM Ab",Relipidated TF [3],22 nM
same,"Peak IIa, TGA […] min pre-incubation, 100 nM Ab",Relipidated TF [3],19 nM
same,"ttPeak, TGA 10 min pre-incubation, 10 nM Ab",Relipidated TF [3],29.3 min
same,"ttPeak, TGA 10 min pre-incubation, 50 nM Ab",Relipidated TF [3],41.4 min
same,"ttPeak, TGA 10 min pre-incubation, 100 nM Ab",Relipidated TF [3],44.6 min
